B1: LINE1-full (parent)
chain: UACGUAGGUGGUUUUCCCCUGAUAGUGCUAAGGGGGCCUGGAAGUUUGGACUGGGCAGAGCUCAACACAGCGUGGCAAAGUGGCUGUGGCUAGACUGCCUCUCUGGAUUCCUCGUCACUCAGCAGGGCAUCUCUGAGAGAAAUGCC

Variants of: B1
Experiment: self-cleavage, relative activity (ratio to wild type); higher = more cleavage; in vitro, sequencing; the parent is a self-cleaving ribozyme

| Variant | self-cleavage |
| --- | --- |
| UACGUAGGUGGUUUUCCCCUGAUAGUGCUAAGGGGGCCUGGAAGUUUGGACUGGGCAGAGCUCAACACAGCGUGGCAAAGUGGCUGUGGCUAGACUGCCUCUCUGGAUUCCCCGUCACUCAGCGGGGCAUCUCUGAGAGAAAUGCC [U112C A124G] | 0.64 |
| UACGUAGGUGGUUUUCCCCUGAUAGUGCUAAGGGGGCCUGGAAGUUUGGACUGGGCAGAGCUCAACACAGCGUGGCAAAGUGGCUGUGGCUAGACUGCCUCUCUGGAUUCCCCGUCACUCAGCCGGGCAUCUCUGAGAGAAAUGCC [U112C A124C] | 0.77 |
| UACGUAGGUGGUUUUCCCCUGAUAGUGCUAAGGGGGCCUGGAAGUUUGGACUGGGCAGAGCUCAACACAGCGUGGCAAAGUGGCUGUGGCUAGACUGCCUCUCUGGAUUCCCCGUCACUCAGCAGGGCAUCUCUGAGAGGAAUGCC [U112C A140G] | 0.83 |
| UACGUAGGUGGUUUUCCCCUGAUAGUGCUAAGGGGGCCUGGAAGUUUGGACUGGGCAGAGCUCAACACAGCGUGGCAAAGUGGCUGUGGCUAGACUGCCUCUCUGGAUUCCACGUCACUCAGCAGGGCUUCUCUGAGAGAAAUGCC [U112A A129U] | 1.8 |
| UACGUAGGUGGUUUUCCCCUGAUAGUGCUAAGGGGGCCUGGAAGUUUGGACUGGGCAGAGCUCAACACAGCGUGGCAAAGUGGCUGUGGCUAGACUGCCUCUCUGGAUUCCCCGUCACUCAGCAGGGCAUCUCUGGGAGAAAUGCC [U112C A136G] | 1.51 |
| UACGUAGGUGGUUUUCCCCUGAUAGUGCUAAGGGGGCCUGGAAGUUUGGACUGGGCAGAGCUCAACACAGCGUGGCAAAGUGGCUGUGGCUAGACUGCCUCUCUGGAUUCCCCGUCACUCAGCAGGGCAUCUCUGUGAGAAAUGCC [U112C A136U] | 1.84 |
| UACGUAGGUGGUUUUCCCCUGAUAGUGCUAAGGGGGCCUGGAAGUUUGGACUGGGCAGAGCUCAACACAGCGUGGCAAAGUGGCUGUGGCUAGACUGCCUCUCUGGAUUCCACGUCGCUCAGCAGGGCAUCUCUGAGAGAAAUGCC [U112A A117G] | 1.82 |
| UACGUAGGUGGUUUUCCCCUGAUAGUGCUAAGGGGGCCUGGAAGUUUGGACUGGGCAGAGCUCAACACAGCGUGGCAAAGUGGCUGUGGCUAGACUGCCUCUCUGGAUUCCACGUCACUCAGCAGGGCACCUCUGAGAGAAAUGCC [U112A U130C] | 1.6 |
| UACGUAGGUGGUUUUCCCCUGAUAGUGCUAAGGGGGCCUGGAAGUUUGGACUGGGCAGAGCUCAACACAGCGUGGCAAAGUGGCUGUGGCUAGACUGCCUCUCUGGAUUCUUCGUCACUCAGCAGGGCAUCUCUGAGAGAAAUGCC [C111U] | 1.38 |
| UACGUAGGUGGUUUUCCCCUGAUAGUGCUAAGGGGGCCUGGAAGUUUGGACUGGGCAGAGCUCAACACAGCGUGGCAAAGUGGCUGUGGCUAGACUGCCUCUCUGGAUUCCACGUCACUCAGCAGGGCAUCUCUGGGAGAAAUGCC [U112A A136G] | 1.71 |
| UACGUAGGUGGUUUUCCCCUGAUAGUGCUAAGGGGGCCUGGAAGUUUGGACUGGGCAGAGCUCAACACAGCGUGGCAAAGUGGCUGUGGCUAGACUGCCUCUCUGGAUUCUUCGUCACUCAGCAGGGCAUCUCUGGGAGAAAUGCC [C111U A136G] | 1.26 |
| UACGUAGGUGGUUUUCCCCUGAUAGUGCUAAGGGGGCCUGGAAGUUUGGACUGGGCAGAGCUCAACACAGCGUGGCAAAGUGGCUGUGGCUAGACUGCCUCUCUGGAUUCCACGUCACUCAGCAGGGCAUCUCUGAGAGUAAUGCC [U112A A140U] | 1.79 |
| UACGUAGGUGGUUUUCCCCUGAUAGUGCUAAGGGGGCCUGGAAGUUUGGACUGGGCAGAGCUCAACACAGCGUGGCAAAGUGGCUGUGGCUAGACUGCCUCUCUGGAUUCUUCGUCACUCAGCAGGGCAUCUCUGAGAGAGAUGCC [C111U A141G] | 0.45 |
| UACGUAGGUGGUUUUCCCCUGAUAGUGCUAAGGGGGCCUGGAAGUUUGGACUGGGCAGAGCUCAACACAGCGUGGCAAAGUGGCUGUGGCUAGACUGCCUCUCUGGAUUCCACGUCACUCAGCAGGGCAUCUCUGAGAGAGAUGCC [U112A A141G] | 1.43 |
| UACGUAGGUGGUUUUCCCCUGAUAGUGCUAAGGGGGCCUGGAAGUUUGGACUGGGCAGAGCUCAACACAGCGUGGCAAAGUGGCUGUGGCUAGACUGCCUCUCUGGAUUCCACGUCACUCAGCAGGGCAUCACUGAGAGAAAUGCC [U112A U132A] | 1.69 |
| UACGUAGGUGGUUUUCCCCUGAUAGUGCUAAGGGGGCCUGGAAGUUUGGACUGGGCAGAGCUCAACACAGCGUGGCAAAGUGGCUGUGGCUAGACUGCCUCUCUGGAUUCCCCGUCACUCAGCAGGGCAUCUCUGAGUGAAAUGCC [U112C A138U] | 1.23 |
| UACGUAGGUGGUUUUCCCCUGAUAGUGCUAAGGGGGCCUGGAAGUUUGGACUGGGCAGAGCUCAACACAGCGUGGCAAAGUGGCUGUGGCUAGACUGCCUCUCUGGAUUCCCCGUCCCUCAGCAGGGCAUCUCUGAGAGAAAUGCC [U112C A117C] | 1.38 |
| UACGUAGGUGGUUUUCCCCUGAUAGUGCUAAGGGGGCCUGGAAGUUUGGACUGGGCAGAGCUCAACACAGCGUGGCAAAGUGGCUGUGGCUAGACUGCCUCUCUGGAUUCUUCGUCACUCAGCAGGGCACCUCUGAGAGAAAUGCC [C111U U130C] | 1.75 |
| UACGUAGGUGGUUUUCCCCUGAUAGUGCUAAGGGGGCCUGGAAGUUUGGACUGGGCAGAGCUCAACACAGCGUGGCAAAGUGGCUGUGGCUAGACUGCCUCUCUGGAUUCCACGUCACUCCGCAGGGCAUCUCUGAGAGAAAUGCC [U112A A121C] | 1.92 |
| UACGUAGGUGGUUUUCCCCUGAUAGUGCUAAGGGGGCCUGGAAGUUUGGACUGGGCAGAGCUCAACACAGCGUGGCAAAGUGGCUGUGGCUAGACUGCCUCUCUGGAUUCCACGUCACUCGGCAGGGCAUCUCUGAGAGAAAUGCC [U112A A121G] | 1.82 |

| Variant | self-cleavage |
| --- | --- |
| UACGUAGGUGGUUUUCCCCUGAUAGUGCUAAGGGGGCCUGGAAGUUUGGACUGGGCAGAGCUCAACACAGCGUGGCAAAGUGGCUGUGGCUAGACUGCCUCUCUGGAUUCCACGCCACUCAGCAGGGCAUCUCUGAGAGAAAUGCC [U112A U115C] | 1.3 |
| UACGUAGGUGGUUUUCCCCUGAUAGUGCUAAGGGGGCCUGGAAGUUUGGACUGGGCAGAGCUCAACACAGCGUGGCAAAGUGGCUGUGGCUAGACUGCCUCUCUGGAUUCCACGUCACUCAGCAGGGCAUCUCUGAGAGAAAUGCC [U112A] | 1.43 |
| UACGUAGGUGGUUUUCCCCUGAUAGUGCUAAGGGGGCCUGGAAGUUUGGACUGGGCAGAGCUCAACACAGCGUGGCAAAGUGGCUGUGGCUAGACUGCCUCUCUGGAUUCCCCGUCACUCAGCAGGGCAUCUCUGAGAGAAAUGCC [U112C] | 1.36 |
| UACGUAGGUGGUUUUCCCCUGAUAGUGCUAAGGGGGCCUGGAAGUUUGGACUGGGCAGAGCUCAACACAGCGUGGCAAAGUGGCUGUGGCUAGACUGCCUCUCUGGAUUCCACGUCACACAGCAGGGCAUCUCUGAGAGAAAUGCC [U112A U119A] | 0 |
| UACGUAGGUGGUUUUCCCCUGAUAGUGCUAAGGGGGCCUGGAAGUUUGGACUGGGCAGAGCUCAACACAGCGUGGCAAAGUGGCUGUGGCUAGACUGCCUCUCUGGAUUCCACGUCACCCAGCAGGGCAUCUCUGAGAGAAAUGCC [U112A U119C] | 2.45 |
| UACGUAGGUGGUUUUCCCCUGAUAGUGCUAAGGGGGCCUGGAAGUUUGGACUGGGCAGAGCUCAACACAGCGUGGCAAAGUGGCUGUGGCUAGACUGCCUCUCUGGAUUCAUCGUCACUCAGCAGGGCAACUCUGAGAGAAAUGCC [C111A U130A] | 1.16 |
| UACGUAGGUGGUUUUCCCCUGAUAGUGCUAAGGGGGCCUGGAAGUUUGGACUGGGCAGAGCUCAACACAGCGUGGCAAAGUGGCUGUGGCUAGACUGCCUCUCUGGAUUCCACGUCACUCAGCAGGGCAUCUCGGAGAGAAAUGCC [U112A U134G] | 1.73 |
| UACGUAGGUGGUUUUCCCCUGAUAGUGCUAAGGGGGCCUGGAAGUUUGGACUGGGCAGAGCUCAACACAGCGUGGCAAAGUGGCUGUGGCUAGACUGCCUCUCUGGAUUCCACGUCACUCAGCAGGGCAUCUCCGAGAGAAAUGCC [U112A U134C] | 1.56 |
| UACGUAGGUGGUUUUCCCCUGAUAGUGCUAAGGGGGCCUGGAAGUUUGGACUGGGCAGAGCUCAACACAGCGUGGCAAAGUGGCUGUGGCUAGACUGCCUCUCUGGAUUCCACGUCACUCAGCAGGGCAUCUCAGAGAGAAAUGCC [U112A U134A] | 1.09 |
| UACGUAGGUGGUUUUCCCCUGAUAGUGCUAAGGGGGCCUGGAAGUUUGGACUGGGCAGAGCUCAACACAGCGUGGCAAAGUGGCUGUGGCUAGACUGCCUCUCUGGAUUCAUCGUCACUCAGCAGGGCAUCUCUGAGAGAGAUGCC [C111A A141G] | 1.03 |
| UACGUAGGUGGUUUUCCCCUGAUAGUGCUAAGGGGGCCUGGAAGUUUGGACUGGGCAGAGCUCAACACAGCGUGGCAAAGUGGCUGUGGCUAGACUGCCUCUCUGGAUUCAUCGUCACUCAGCAGGGCAUCUCUGAGAGAUAUGCC [C111A A141U] | 1.14 |
| UACGUAGGUGGUUUUCCCCUGAUAGUGCUAAGGGGGCCUGGAAGUUUGGACUGGGCAGAGCUCAACACAGCGUGGCAAAGUGGCUGUGGCUAGACUGCCUCUCUGGAUUCCACGUCACUCAGCAGGGCAUCUCUGAGGGAAAUGCC [U112A A138G] | 1.57 |
| UACGUAGGUGGUUUUCCCCUGAUAGUGCUAAGGGGGCCUGGAAGUUUGGACUGGGCAGAGCUCAACACAGCGUGGCAAAGUGGCUGUGGCUAGACUGCCUCUCUGGAUUCCACGUCACUCAGCAGGGCAUCUCUGAGUGAAAUGCC [U112A A138U] | 2.19 |
| UACGUAGGUGGUUUUCCCCUGAUAGUGCUAAGGGGGCCUGGAAGUUUGGACUGGGCAGAGCUCAACACAGCGUGGCAAAGUGGCUGUGGCUAGACUGCCUCUCUGGAUUCCACGUCACUCAGCAGGGCAUCUCUGAGAGAAACGCC [U112A U143C] | 0.83 |
| UACGUAGGUGGUUUUCCCCUGAUAGUGCUAAGGGGGCCUGGAAGUUUGGACUGGGCAGAGCUCAACACAGCGUGGCAAAGUGGCUGUGGCUAGACUGCCUCUCUGGAUUCUUCGUCACUCUGCAGGGCAUCUCUGAGAGAAAUGCC [C111U A121U] | 1.28 |
| UACGUAGGUGGUUUUCCCCUGAUAGUGCUAAGGGGGCCUGGAAGUUUGGACUGGGCAGAGCUCAACACAGCGUGGCAAAGUGGCUGUGGCUAGACUGCCUCUCUGGAUUCUUCGUCACUCAGCAGGGCAUCUCUGAAAGAAAUGCC [C111U G137A] | 1.73 |
| UACGUAGGUGGUUUUCCCCUGAUAGUGCUAAGGGGGCCUGGAAGUUUGGACUGGGCAGAGCUCAACACAGCGUGGCAAAGUGGCUGUGGCUAGACUGCCUCUCUGGAUUCUUCGCCACUCAGCAGGGCAUCUCUGAGAGAAAUGCC [C111U U115C] | 1.55 |
| UACGUAGGUGGUUUUCCCCUGAUAGUGCUAAGGGGGCCUGGAAGUUUGGACUGGGCAGAGCUCAACACAGCGUGGCAAAGUGGCUGUGGCUAGACUGCCUCUCUGGAUUCAUCGUCGCUCAGCAGGGCAUCUCUGAGAGAAAUGCC [C111A A117G] | 1.69 |
| UACGUAGGUGGUUUUCCCCUGAUAGUGCUAAGGGGGCCUGGAAGUUUGGACUGGGCAGAGCUCAACACAGCGUGGCAAAGUGGCUGUGGCUAGACUGCCUCUCUGGAUUCCCCGUCACUCAGCAGGGCUUCUCUGAGAGAAAUGCC [U112C A129U] | 1.67 |

Source: the RNAGym collection of RNA variant scans (doi:10.7554/elife.90254)
